Changes are numbered by the printed parent chain. Numbers in names are those of the source.
Key:
[1] = biological target: human intermediate-affinity IL-2 receptor complex, IL-2 CD122/CD132 (β/γ), on cells (human) (UniProt P14784)
[2] = biological target: human high-affinity IL-2 receptor complex, IL-2 CD25/CD122/CD132 (α/β/γ), on cells (human) (UniProt P01589)
[3] = biological target: T1, mouse intermediate-affinity IL-2R (IL-2Rβ + IL-2Rγ) on murine splenocytes (CD8+ T cells and NK cells) (mouse) (UniProt P16297)
T1 sequence 1: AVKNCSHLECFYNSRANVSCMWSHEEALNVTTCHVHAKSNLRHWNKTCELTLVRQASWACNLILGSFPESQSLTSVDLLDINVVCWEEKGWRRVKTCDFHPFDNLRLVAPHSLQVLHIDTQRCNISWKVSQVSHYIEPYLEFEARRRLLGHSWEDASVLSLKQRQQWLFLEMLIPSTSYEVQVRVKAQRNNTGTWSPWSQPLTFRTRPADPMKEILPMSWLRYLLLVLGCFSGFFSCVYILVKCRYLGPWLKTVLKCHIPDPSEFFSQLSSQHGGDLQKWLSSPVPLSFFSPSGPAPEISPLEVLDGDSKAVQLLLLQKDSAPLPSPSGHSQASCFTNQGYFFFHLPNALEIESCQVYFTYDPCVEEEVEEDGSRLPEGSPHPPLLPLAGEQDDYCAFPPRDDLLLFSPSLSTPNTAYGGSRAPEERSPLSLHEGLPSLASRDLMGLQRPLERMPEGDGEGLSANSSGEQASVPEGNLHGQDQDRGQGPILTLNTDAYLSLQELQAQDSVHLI
T1 sequence 2: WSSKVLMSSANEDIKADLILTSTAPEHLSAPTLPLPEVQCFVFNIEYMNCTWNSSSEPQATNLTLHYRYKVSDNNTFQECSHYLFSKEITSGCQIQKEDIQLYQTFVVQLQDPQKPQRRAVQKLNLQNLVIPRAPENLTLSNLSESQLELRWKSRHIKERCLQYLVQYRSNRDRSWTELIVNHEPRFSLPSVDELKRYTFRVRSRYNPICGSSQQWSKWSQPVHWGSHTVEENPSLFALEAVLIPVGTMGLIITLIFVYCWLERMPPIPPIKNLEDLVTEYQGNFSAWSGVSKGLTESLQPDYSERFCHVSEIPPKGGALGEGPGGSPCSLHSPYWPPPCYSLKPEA

[4] = biological target: T1, mouse intermediate-affinity IL-2R (IL-2Rβ + IL-2Rγ) on murine splenocytes (CD8+ T cells and NK cells) (mouse); remark: listed apart in the source
[5] = biological target: T2, mouse high-affinity IL-2R (IL-2Rα/CD25 + IL-2Rβ + IL-2Rγ) on murine splenocytes (Treg cells, CD3+CD4+CD25+Foxp3+) (mouse) (UniProt P01590)
T2 sequence 1: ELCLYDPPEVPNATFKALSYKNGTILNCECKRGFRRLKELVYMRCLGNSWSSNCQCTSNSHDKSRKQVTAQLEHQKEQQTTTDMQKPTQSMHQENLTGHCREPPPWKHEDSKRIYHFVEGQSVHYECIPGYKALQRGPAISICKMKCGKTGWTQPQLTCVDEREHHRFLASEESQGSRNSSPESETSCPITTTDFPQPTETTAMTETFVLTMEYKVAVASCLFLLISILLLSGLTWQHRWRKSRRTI
T2 sequence 2: T1 sequence 1
T2 sequence 3: T1 sequence 2

hILR2β (CD122) = biological target: T3, hILR2β (CD122) (Homo sapiens, UniProt P14784); test: Biacore 8K surface plasmon resonance, hILR2β (CD122); type: binding; details: SPR; for Kd / hILR2β (CD122) kinetics ka / hILR2β (CD122) kinetics kd: HBS-EP+ pH 7.4, 25° C.; for binding affinity to human IL-2Rβ compared with the wild-type IL-2 Fc fusion: Table B
T3 sequence (P14784 27-240 limits assumed): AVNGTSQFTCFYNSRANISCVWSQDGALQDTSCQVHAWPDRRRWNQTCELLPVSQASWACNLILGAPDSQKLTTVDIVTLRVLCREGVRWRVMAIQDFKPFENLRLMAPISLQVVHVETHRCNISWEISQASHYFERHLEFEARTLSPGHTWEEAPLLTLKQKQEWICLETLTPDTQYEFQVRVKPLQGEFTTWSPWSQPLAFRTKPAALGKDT
Experimental: (§1) All experiments were performed on a Biacore 8K Surface Plasmon Resonance based biosensor (GE Healthcare). Purified soluble ligands were covalently coupled onto a CM5 sensor chip using an Amine Coupling Kit (GE Healthcare, Product #BR100050) following the manufacturer's recommendations. HBS-EP+ running buffer (10 mM HEPES pH 7.4, 0.15 M NaCl, 3 mM EDTA, 0.005% P-20), ranging in concentration was injected on all flow cells for 7 minutes at 20 μL/min. CD25 and CD122 was captured to surface densities of ˜20 and ˜500 RU, respectively. A non-derivatized flow cell was used as a reference surface. All flow cells were blocked with 100 mM ethylenediamine in 200 mM borate buffer pH 8.5 for 7 minutes at 10 μL/min.
Protein interaction experiments were performed using HBS-EP+(pH 7.4) at 25° C. on each spot. Following capture of antigens, analyte (1.23, 3.7, 11.1, 33.3, 100, 300, and 900 nM concentrations of IL-2 variants) was injected at a flow rate of 50 μL/min in all flow cells for 50 seconds. After each analyte injection, dissociation was monitored for 5 minutes, followed by regeneration of all flow cells with a 20 second injection of 10 mM glycine (pH 2.1). Buffer cycles were collected for each sample for double-referencing purposes (double-referencing as described in Myszka, D. G., Improving biosensor analysis. J. Mol. Recognit. 12, 279-284 (1999)). For kinetic analysis, the double-referenced sensorgrams were fit globally to a simple 1:1 Langmuir with mass transport binding model using Biacore 8K Evaluation Software version 1.1.1.7442. For steady-state affinity analysis, the double-referenced equilibrium binding responses were fit with a 1:1 Langmuir steady-state model using Biacore 8K Evaluation Software version 1.1.1.7442.

Treg cells = test: In vivo expansion of Treg cells (spleen immunophenotyping); set-up: species or system mice; details: 0.5, 1, or 2 mg/kg daily for 4 days SC; spleens day 3
Experimental: (§2) Mice were randomized into groups to receive one of the molecules listed above or PBS control. The treatment groups were as follows: PBS; Fc-IL2; Fc-IL2v; […]; Immunophenotyping was conducted on day 3 after the first treatment (day 0) by collecting spleens from each group.

[6] = system: iTreg cells (IL-2 CD25/CD122/CD132 (α/β/γ) receptor complex); test: pSTAT5 ELISA in iTreg cells; type: cell-based; details: pSTAT5 level 50% of maximum, InstantOne ELISA; read-out: EC50 iTreg cell
Experimental: (§3) The ability of the IL-2 variants to activate HH cells and iTregs was measured by monitoring relative changes in phosphorylated STAT5 (pSTAT5) in response to treatment of the cells with the IL-2 variants. pSTAT5 is known to be a downstream consequence of IL-2 signaling. HH T cells (ATCC CRL-2105) are a line of T cells that lack the alpha chain of the IL-2 receptor complex, but that contain the beta and gamma chains of the IL-2 receptor complex. iTreg cells were prepared from Fresh Leuko Paks obtained from […] Technologies (CAT #70500.1, Donor #D001003551).
(§4) For IL-2 activation, the HH cells and iTreg cells were plated at 2*10e6 cells/well in 50 ul serum-free RPMI 1640 media (Gibco), and allowed to rest at 37° C. After resting, cells were treated the IL-2 molecules listed above, and cells were then pelleted by centrifugation.
(§5) Following treatment with the IL-2 molecules, cell induction status was evaluated by the InstantOne ELISA pSTAT5 detection kit (Invitrogen).

[7] = system: HH cells (IL-2 CD122/CD132 (β/γ) receptor complex); test: pSTAT5 ELISA in HH cells; type: cell-based; details: for relative selectivity for HH cells vs iTreg cells among the tested molecules: Table C; for Selectivity HH/iTreg: higher value = greater selectivity for HH cells; for EC50: pSTAT5 level 50% of maximum, InstantOne ELISA, read-out: EC50 HH T cell
Experimental: as §3, §4, §5

NK cells = test: In vivo expansion of NK cells (spleen immunophenotyping); set-up: species or system mice; details: 0.5, 1, or 2 mg/kg daily for 4 days SC; spleens day 3
Experimental: as §2

B16F10 cells = test: Tolerability and tumor growth inhibition in B16F10-bearing mice (Example 21); type: in vivo, mouse (C57/BL6); details: for surviving mice: 1 mg/kg SC on days 5, 6, 7, 8, groups of 15, day 12 post first treatment; for tolerability in mice compared with Fc-IL2 and Fc-IL2v: 1 mg/kg SC on days 5-8; for tumor growth inhibition in comparison to PBS control: B16F10 SC, 1 mg/kg SC on days 5-8, surviving mice
Text: On day 0 of the experiment, female C57/BL6 mice were subcutaneously implanted in the upper thigh with approximately 500,000 B16F10 cells, which had been freshly thawed from a single, low-passage vial (of 1*10^7 cells) and cultured for the minimum time required to establish sufficient cells for implantation.
On day 5 of the experiment, mice were randomized into groups to receive one of the molecules listed above or control. […] Tumor volumes, body weight, and animal survival were tracked throughout the course of the experiment. Animals were sacrificed once tumors reached approximately 2000 mm^3 or 2 weeks post treatment.

hIL2Rα (CD25) = biological target: T4, hIL2Rα (CD25) (Homo sapiens, UniProt P01589); test: Biacore 8K surface plasmon resonance, hIL2Rα (CD25); type: binding; details: SPR, Table B
T4 construct: Purified soluble ligands were covalently coupled onto a CM5 sensor chip
T4 sequence (P01589 22-240 limits assumed): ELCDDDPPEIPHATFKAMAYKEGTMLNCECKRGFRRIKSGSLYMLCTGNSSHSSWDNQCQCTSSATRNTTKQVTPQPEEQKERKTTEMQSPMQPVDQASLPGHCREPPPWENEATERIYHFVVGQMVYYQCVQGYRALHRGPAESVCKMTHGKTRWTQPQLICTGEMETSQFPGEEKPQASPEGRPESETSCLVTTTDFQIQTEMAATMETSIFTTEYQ
Experimental: as §1
Protein interaction experiments were performed using HBS-EP+(pH 7.4) at 25° C. on each spot. Following capture of antigens, analyte (1.23, 3.7, 11.1, 33.3, 100, 300, and 900 nM concentrations of IL-2 variants) was injected at a flow rate of 50 μL/min in all flow cells for 50 seconds. After each analyte injection, dissociation was monitored for 5 minutes, followed by regeneration of all flow cells with a 20 second injection of 10 mM glycine (pH 2.1). Buffer cycles were collected for each sample for double-referencing purposes (double-referencing as described in Myszka, D. G., Improving biosensor analysis. J. Mol. Recognit. 12, 279-284 (1999)). […]

CD8 T cells = test: In vivo expansion of CD8 T cells (spleen immunophenotyping); set-up: species or system mice; details: 0.5, 1, or 2 mg/kg daily for 4 days SC; spleens day 3
Experimental: as §2

## Fc-IL2-R38N:L40T-T41N:K43T (from UniProt P01857-1) (Fc fusion)
[1]
  EC50 (read off the curve), pSTAT5 MFI in NK cells of hPBMC: 6 nM
[2]
  EC50 (read off the curve), pSTAT5 MFI in Treg cells of hPBMC: 20 nM

## human IL-2 variant hIL-2v (F42A, Y45A, L72G), secreted by virus-infected HeLa cells (from UniProt P60568 21-153) (ligand)
[3]
  EC50 (read off the curve), pSTAT5 MFI, murine splenocyte CD8 T cells: 100 ng/mL
[4]
  EC50 (read off the curve), pSTAT5 MFI, murine splenocyte NK cells: 20 ng/mL
[5]
  EC50 (read off the curve), pSTAT5 MFI, murine splenocyte Treg cells: 70 ng/mL

B1: Fc-IL2-R38N:L40T-K43N:Y45T (protein)
chain: APTSSSTKKTQLQLEHLLLDLQMILNGINNYKNPKLTNMTTFNFTMPKKATELKHLQCLEEELKPLEEVLNLAQSKNFHLRPRDLISNINVIVLELKGSETTFMCEYADETATIVEFLNRWITFCQSIISTLT
hILR2β (CD122)
  Kd: 3540 nM
  hILR2β (CD122) kinetics ka: 82600 M⁻¹ s⁻¹
  hILR2β (CD122) kinetics kd: 0.292 s⁻¹
  binding affinity to human IL-2Rβ compared with the wild-type IL-2 Fc fusion: retain similar binding affinity
Treg cells
  proliferation of Treg cells in vivo: minimal effects on the proliferation of Treg cells
[6]
  EC50: 14.1 nM
[7]
  relative selectivity for HH cells vs iTreg cells among the tested molecules: greatest relative selectivity
  Selectivity HH/iTreg: 6.47 × 10^−2
  EC50: 218 nM
NK cells
  expansion of NK cells in vivo: promoted the expansion
B16F10 cells
  surviving mice: 11/15
  tolerability in mice compared with Fc-IL2 and Fc-IL2v: better tolerated
  tumor growth inhibition in comparison to PBS control: significant tumor growth inhibition
hIL2Rα (CD25)
  binding to IL-2Rα: do not have measurable binding to IL-2Rα
CD8 T cells
  expansion of CD8 T cells in vivo: promoted the expansion

B2: Fc-IL2-K43N:Y45T-L72N:Q74T (protein)
chain: B1 chain with N38R, T40L, L72N, Q74T
hILR2β (CD122)
  Kd: 2620 nM
  hILR2β (CD122) kinetics ka: 89900 M⁻¹ s⁻¹
  hILR2β (CD122) kinetics kd: 0.235 s⁻¹
  binding affinity to human IL-2Rβ compared with the wild-type IL-2 Fc fusion: retain similar binding affinity
Treg cells
  proliferation of Treg cells in vivo: minimal effects on the proliferation of Treg cells
[6]
  EC50: 4.49 nM
[7]
  relative selectivity for HH cells vs iTreg cells among the tested molecules: greatest relative selectivity
  Selectivity HH/iTreg: 6.89 × 10^−2
  EC50: 65.2 nM
NK cells
  expansion of NK cells in vivo: promoted the expansion
B16F10 cells
  surviving mice: 14/15
  tolerability in mice compared with Fc-IL2 and Fc-IL2v: better tolerated
  tumor growth inhibition in comparison to PBS control: significant tumor growth inhibition
hIL2Rα (CD25)
  binding to IL-2Rα: do not have measurable binding to IL-2Rα
CD8 T cells
  expansion of CD8 T cells in vivo: promoted the expansion

From patent US20220033784A1 (priority 2020, published 2022)
